In publication PMC7004355 (PLoS ONE, 2020):
Numbering of substitutions follows the chain as printed. Numbers in names are those of the source.

B1: OTC (E. coli ornithine transcarbamoylase, argI) (Escherichia coli K-12; E300Q) (protein)
chain: SGFYHKHFLKLLDFTPAELNSLLQLAAKLKADKKSGKEEAKLTGKNIALIFEKDSTRTRCSFEVAAYDQGARVTYLGPSGSQIGHKESIKDTARVLGRMYDGIQYRGYGQEIVETLAEYASVPVWNGLTNEFHPTQLLADLLTMQEHLPGKAFNEMTLVYAGDARNNMGNSMLEAAALTGLDLRLVAPQACWPEAALVTECRALAQQNGGNITLTEDVAKGVEGADFIYTDVWVSMGEAKEKWAERIALLREYQVNSKMMQLTGNPEVKFLHCLPAFHDDQTTLGKKMAEEFGLHGGMQVTDEVFESAASIVFDQAENRMHTIKAVMVATLSK
notes: full length, uncleaved 6xHis tag, pCA24N ASKA clone, expressed in BL21(DE3) Tuner; homotrimer of 333-residue subunits
B2: Escherichia coli ornithine transcarbamoylase (OTC) variant D231A, His-tagged (enzyme, E. coli)
chain: B1 chain with D231A, Q299E
notes: Anabolic ornithine transcarbamoylase of E. coli, argI gene, 333-residue subunit; Made by site-directed mutagenesis of the ASKA pCA24N plasmid; 6x-His tag not cleaved; source: E. coli BL21 (DE3) Tuner, purified (HisTrap FF, Superdex 200 SEC)
B3: OTC (E. coli ornithine transcarbamoylase, argI) (Escherichia coli K-12; R58A) (protein)
chain: B1 chain with R57A, Q299E
notes: as for B1
B4: Escherichia coli ornithine transcarbamoylase (OTC) variant Y160S, His-tagged (enzyme, E. coli)
chain: B1 chain with Y160S, Q299E
notes: as for B2
B5: OTC (E. coli ornithine transcarbamoylase, argI) (Escherichia coli K-12; D141N) (protein)
chain: B1 chain with D140N, Q299E
notes: as for B1
B6: Escherichia coli ornithine transcarbamoylase (OTC), wild type, His-tagged (enzyme, E. coli)
chain: B1 chain with Q299E
notes: Anabolic ornithine transcarbamoylase of E. coli, argI gene, 333-residue subunit; Expressed from the ASKA plasmid pCA24N; also called WT OTC; anabolic OTC; source: E. coli BL21 (DE3) Tuner, purified (HisTrap FF, Superdex 200 SEC)
B7: OTC (E. coli ornithine transcarbamoylase, argI) (Escherichia coli K-12; H273L) (protein)
chain: B1 chain with H272L, Q299E
notes: as for B1
B8: Escherichia coli ornithine transcarbamoylase (OTC) variant Y229S, His-tagged (enzyme, E. coli)
chain: B1 chain with Y229S, Q299E
notes: as for B2
B9: Escherichia coli ornithine transcarbamoylase (OTC) variant Q104L, His-tagged (enzyme, E. coli)
chain: B1 chain with Q104L, Q299E
notes: Anabolic ornithine transcarbamoylase of E. coli, argI gene, 333-residue subunit; Made by site-directed mutagenesis of the ASKA pCA24N plasmid; 6x-His tag not cleaved; also called negative control; source: E. coli BL21 (DE3) Tuner, purified (HisTrap FF, Superdex 200 SEC)
B10: Escherichia coli ornithine transcarbamoylase (OTC) variant Y160F, His-tagged (enzyme, E. coli)
chain: B1 chain with Y160F, Q299E
notes: as for B2
B11: Escherichia coli ornithine transcarbamoylase (OTC) variant Y229F, His-tagged (enzyme, E. coli)
chain: B1 chain with Y229F, Q299E
notes: as for B2
B12: Escherichia coli ornithine transcarbamoylase (OTC) variant S61A, His-tagged (enzyme, E. coli)
chain: B1 chain with S61A, Q299E
notes: as for B9

These molecules were tested on NCCC[C@H](N)C(=O)O (assay: purified protein). Settings: 50 mM Tris pH 8.5, 20 °C, 20 mM NaCl, carbamoyl phosphate 5 mM.

Row | Molecule | Km [µM] | kcat [s⁻¹] | kcat/Km [M⁻¹ s⁻¹]
1 | B1 | 330 ± 100 | 5.1 | 16000
2 | B2 | 590 ± 330 | 0.7 | 1400
3 | B3 | 440 ± 92 | 8.2 | 19000
4 | B4 | 7300 ± 2000 | 410 | 61000
5 | B5 | 17000 ± 5900 | 460 | 30000
6 | B6 | 530 ± 55 | 440 | 830000

Each molecule was assayed on NC(=O)OP(=O)(O)O (assay: purified protein). Settings: 50 mM Tris pH 8.5, 20 °C, 20 mM NaCl, ornithine 3 mM.
Type: biochemical, Escherichia coli

Row | Molecule | Km [µM] | kcat [s⁻¹] | kcat/Km [M⁻¹ s⁻¹]
7 | B7 | 930 ± 580 | 4.2 ± 1.8 | 5000 ± 1100
8 | B1 | 340 ± 110 | 4.6 ± 1 | 14000 ± 3300
9 | B2 | 150 ± 42 | 0.48 ± 0.1 | 3400 ± 1300
10 | B3 | 280 ± 27 | 7.5 ± 1.8 | 27000 ± 7300
11 | B6 | 270 ± 34 | 410 ± 20 | 1.5e+06 ± 130000

Same assay, conditions: 50 mM Tris pH 8.5, 20 °C, 20 mM NaCl, ornithine 60 mM (variants with ORN KM above 3 mM)

Row | Molecule | Km [µM] | kcat [s⁻¹] | kcat/Km [M⁻¹ s⁻¹]
12 | B5 | 1400 ± 450 | 360 ± 59 | 290000 ± 90000

Biological target: the molecule itself
Experiment: SEC-SAXS; in-line SEC-SAXS on a Superdex 200 5/150 GL column; enzyme at 4.3-5.5 mg/mL; apo state, and after incubation with 5 mM CP or 10 mM ORN; self-association of the enzyme (trimer)
Settings: not given

Row | Molecule | binding result | stoichiometry N
13 | B8 | binds | 
14 | B2 | binds | 
15 | B9 | binds | 
16 | B4 | binds | 
17 | B10 | binds | 
18 | B11 | binds | 
19 | B6 |  | 3
20 | B12 | binds | 

Each molecule was assayed against T1, OTC (E. coli ornithine transcarbamoylase, argI) (Escherichia coli, UniProt P04391) (assay: thermal shift (Sypro Orange)). Settings: absolute Tm, not dTm; 1 mM carbamoyl phosphate, 10 μM enzyme, 50 mM HEPES pH 8, 200 mM NaCl, 2 mM DTT.
T1 construct: full length, uncleaved 6xHis tag, pCA24N ASKA clone, expressed in BL21(DE3) Tuner; homotrimer of 333-residue subunits
T1 sequence (P04391 2-334): B1 chain with Q299E
Type: binding
Text: thermal shift (Sypro Orange) on OTC (E. coli ornithine transcarbamoylase, argI)

Row | Molecule | enzyme +cp [°C]
21 | NC(=O)OP(=O)(O)O [CP, carbamoyl phosphate] | 70 ± 0.5
